EP2386565A2, “Compounds and methods to inhibit or augment an inflammatory response” (Cambridge Enterprise Ltd., priority 1999, dated 2000)
“And” between values parts separate entries of the source, which are not always exact repeats. Equal entries are not always repeated.

Legend:
[1] = target: chemokine receptors on the surface of Jurkat cells; assay: 100 µM biotinylated peptide on Jurkat cells with 100-fold excess of the same unlabeled peptide
[2] = target: chemokine receptors on the surface of Jurkat cells; assay: 100 µM biotinylated peptide on Jurkat cells (10^6 per reaction), 4°C, streptavidin-peroxidase/TMB
[3] = target: chemokine receptors on the surface of Jurkat cells; assay: 100 µM biotinylated peptide on Jurkat cells, alone minus excess unlabeled peptide
[4] = target: chemokine receptors on the surface of Jurkat cells; assay: biotinylated peptide on cells, streptavidin-peroxidase
[5] = target: chemokine receptors on THP-1 cells; assay: 100 µM biotinylated peptide on THP-1 cells with 100-fold excess of the same unlabeled peptide
[6] = target: chemokine receptors on THP-1 cells; assay: 100 µM biotinylated peptide on THP-1 cells, alone minus excess unlabeled peptide
[7] = target: chemokine receptors on THP-1 cells; assay: 100 µM biotinylated peptide on THP-1 cells (4 x 10^5 per reaction), 4°C, streptavidin-peroxidase/TMB
[8] = target: T1, Duffy Antigen Receptor for Chemokines (DARC) (human) (UniProt Q16570); assay: footnote c of Table 6; given as affinity constant
T1 sequence (looked up): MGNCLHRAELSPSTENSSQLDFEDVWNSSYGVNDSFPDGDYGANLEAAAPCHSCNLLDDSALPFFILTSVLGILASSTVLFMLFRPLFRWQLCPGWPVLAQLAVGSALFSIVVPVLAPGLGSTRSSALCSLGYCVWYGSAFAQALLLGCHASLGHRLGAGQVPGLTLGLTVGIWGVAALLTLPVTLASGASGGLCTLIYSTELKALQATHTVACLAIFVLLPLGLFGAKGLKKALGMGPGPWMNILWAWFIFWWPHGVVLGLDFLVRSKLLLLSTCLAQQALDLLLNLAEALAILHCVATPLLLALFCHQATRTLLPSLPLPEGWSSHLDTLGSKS

[9] = target: chemokine receptors on THP-1 cells; assay: binding to chemokine receptors on THP-1 cells; given as association constant
[10] = target: CCR5 (human) (UniProt P51681); assay: 12-point Scatchard analysis, 0.03 nM 125I-RANTES on HOS CCR5 cells and parental line, 4°C, 2 hours
Sequence of CCR5 (human) (P51681 whole entry): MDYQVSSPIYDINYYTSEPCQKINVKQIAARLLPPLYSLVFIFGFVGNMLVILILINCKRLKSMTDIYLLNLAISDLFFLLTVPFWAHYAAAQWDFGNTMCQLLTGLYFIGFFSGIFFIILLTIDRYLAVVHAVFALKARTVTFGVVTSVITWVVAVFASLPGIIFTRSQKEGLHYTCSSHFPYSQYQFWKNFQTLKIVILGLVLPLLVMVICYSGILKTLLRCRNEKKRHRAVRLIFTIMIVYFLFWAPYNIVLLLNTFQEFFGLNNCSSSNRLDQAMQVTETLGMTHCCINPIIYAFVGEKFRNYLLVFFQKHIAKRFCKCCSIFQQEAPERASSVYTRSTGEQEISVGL

gp120:V3(IIIb) (peptide) gave a ΔA450nm, +100-fold excess unlabeled peptide [1] of 0.189 A450, a ΔA450nm, alone [2] of 0.878 A450 and a ΔA450nm, specific binding [3] of 0.689 A450. The fold specific binding to Jurkat cells against THP-1 cells [4] was 5 fold, the ΔA450nm, +100-fold excess unlabeled peptide [5] was 0.131 A450 and the ΔA450nm, specific binding [6] was 0.137 A450. It also gave a ΔA450nm, alone [7] of 0.268 A450.
With WVQ (peptide) the Kd [8] was 2000 nM.
KQK (peptide) was tested, and the Kd [9] was 500 nM and 1000 nM.
“RANTES (from UniProt P13236 24-92) (ligand)” was tested, and the Kd [10] was 1 nM.
gp120:V3(BaL) (peptide) was tested, and the ΔA450nm, +100-fold excess unlabeled peptide [1] was 0.168 A450, the ΔA450nm, alone [2] was 0.167 A450 and the ΔA450nm, specific binding [3] was under 0 A450. The ΔA450nm, +100-fold excess unlabeled peptide [5] was 0.107 A450, the ΔA450nm, specific binding [6] was 0.535 A450 and the ΔA450nm, alone [7] was 0.642 A450.
